{"source": "patent US12679878B2", "about": "“CRF2 receptor agonists and their use in therapy” (SANOFI, priority 2020, dated 2026)", "note": "Starred links: 1 amine or outer side, 2 acyl side, 3 side chain; linkers in the order of their positions; H or OH if unused. Non-standard residues stand in square brackets, D forms with d. Groups on a side chain read outwards from the residue. No end group written: not given here. *: point of attachment. C18 diacid = O=C(O)CCCCCCCCCCCCCCCCC(=O)*; γGlu = O=C(O)[C@H](CCC(=O)[*:2])N[*:1]; Palmitoyl = CCCCCCCCCCCCCCCC(=O)*; AEEA = NCCOCCOCC(=O)O", "data": [{"target": "human corticotropin-releasing factor 2α (CRF2 α receptor) (human), Q13324", "sequence (Q13324 20-411)": "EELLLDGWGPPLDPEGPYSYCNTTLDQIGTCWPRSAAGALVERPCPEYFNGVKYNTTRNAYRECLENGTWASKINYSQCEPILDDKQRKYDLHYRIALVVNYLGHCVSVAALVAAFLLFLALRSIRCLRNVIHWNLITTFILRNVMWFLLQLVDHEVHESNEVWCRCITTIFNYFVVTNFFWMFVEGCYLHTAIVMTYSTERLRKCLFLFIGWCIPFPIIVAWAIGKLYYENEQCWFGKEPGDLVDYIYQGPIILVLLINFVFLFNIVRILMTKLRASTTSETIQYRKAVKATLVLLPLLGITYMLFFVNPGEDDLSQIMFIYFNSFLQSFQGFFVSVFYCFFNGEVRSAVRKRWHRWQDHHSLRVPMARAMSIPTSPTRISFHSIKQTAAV", "experiment": "cell-based or functional assay", "units": {"EC50 [nM], 0% HSA": "nM", "EC50 [nM], 0.1% HSA": "nM"}, "values": [{"binder": "IVLSLDVPIKLK([AEEA-AEEA-γGlu-C18 diacid])KILLKQERQKKEREQAETNKQILAQV-NH2 (N-terminus assumed; SMILES CC[C@H](C)[C@H](N)C(=O)N[C@H](C(=O)N[C@@H](CC(C)C)C(=O)N[C@@H](CO)C(=O)N[C@@H](CC(C)C)C(=O)N[C@@H](CC(=O)O)C(=O)N[C@H](C(=O)N1CCC[C@H]1C(=O)N[C@H](C(=O)N[C@@H](CCCCN)C(=O)N[C@@H](CC(C)C)C(=O)N[C@@H](CCCCNC(=O)COCCOCCNC(=O)COCCOCCNC(=O)CC[C@H](NC(=O)CCCCCCCCCCCCCCCCC(=O)O)C(=O)O)C(=O)N[C@@H](CCCCN)C(=O)N[C@H](C(=O)N[C@@H](CC(C)C)C(=O)N[C@@H](CC(C)C)C(=O)N[C@@H](CCCCN)C(=O)N[C@@H](CCC(N)=O)C(=O)N[C@@H](CCC(=O)O)C(=O)N[C@@H](CCCNC(=N)N)C(=O)N[C@@H](CCC(N)=O)C(=O)N[C@@H](CCCCN)C(=O)N[C@@H](CCCCN)C(=O)N[C@@H](CCC(=O)O)C(=O)N[C@@H](CCCNC(=N)N)C(=O)N[C@@H](CCC(=O)O)C(=O)N[C@@H](CCC(N)=O)C(=O)N[C@@H](C)C(=O)N[C@@H](CCC(=O)O)C(=O)N[C@H](C(=O)N[C@@H](CC(N)=O)C(=O)N[C@@H](CCCCN)C(=O)N[C@@H](CCC(N)=O)C(=O)N[C@H](C(=O)N[C@@H](CC(C)C)C(=O)N[C@@H](C)C(=O)N[C@@H](CCC(N)=O)C(=O)N[C@H](C(N)=O)C(C)C)[C@@H](C)CC)[C@@H](C)O)[C@@H](C)CC)[C@@H](C)CC)C(C)C)C(C)C)", "note": "[SEQ ID NO: 94]", "EC50 [nM], 0% HSA": 1.73, "EC50 [nM], 0.1% HSA": 49.1}, {"binder": "IVLSLDVPIKLK([AEEA-AEEA-γGlu-C18 diacid])QKLLKQERQKKEREQAETNKQILAQV-NH2 (N-terminus assumed; SMILES CC[C@H](C)[C@H](N)C(=O)N[C@H](C(=O)N[C@@H](CC(C)C)C(=O)N[C@@H](CO)C(=O)N[C@@H](CC(C)C)C(=O)N[C@@H](CC(=O)O)C(=O)N[C@H](C(=O)N1CCC[C@H]1C(=O)N[C@H](C(=O)N[C@@H](CCCCN)C(=O)N[C@@H](CC(C)C)C(=O)N[C@@H](CCCCNC(=O)COCCOCCNC(=O)COCCOCCNC(=O)CC[C@H](NC(=O)CCCCCCCCCCCCCCCCC(=O)O)C(=O)O)C(=O)N[C@@H](CCC(N)=O)C(=O)N[C@@H](CCCCN)C(=O)N[C@@H](CC(C)C)C(=O)N[C@@H](CC(C)C)C(=O)N[C@@H](CCCCN)C(=O)N[C@@H](CCC(N)=O)C(=O)N[C@@H](CCC(=O)O)C(=O)N[C@@H](CCCNC(=N)N)C(=O)N[C@@H](CCC(N)=O)C(=O)N[C@@H](CCCCN)C(=O)N[C@@H](CCCCN)C(=O)N[C@@H](CCC(=O)O)C(=O)N[C@@H](CCCNC(=N)N)C(=O)N[C@@H](CCC(=O)O)C(=O)N[C@@H](CCC(N)=O)C(=O)N[C@@H](C)C(=O)N[C@@H](CCC(=O)O)C(=O)N[C@H](C(=O)N[C@@H](CC(N)=O)C(=O)N[C@@H](CCCCN)C(=O)N[C@@H](CCC(N)=O)C(=O)N[C@H](C(=O)N[C@@H](CC(C)C)C(=O)N[C@@H](C)C(=O)N[C@@H](CCC(N)=O)C(=O)N[C@H](C(N)=O)C(C)C)[C@@H](C)CC)[C@@H](C)O)[C@@H](C)CC)C(C)C)C(C)C)", "note": "[SEQ ID NO: 95]", "EC50 [nM], 0% HSA": 25}, {"binder": "IVLSLDVPIKLK([AEEA-AEEA-γGlu-C18 diacid])QILLKQERQKKEREQAETNKQILAQV-NH2 (N-terminus assumed; SMILES CC[C@H](C)[C@H](N)C(=O)N[C@H](C(=O)N[C@@H](CC(C)C)C(=O)N[C@@H](CO)C(=O)N[C@@H](CC(C)C)C(=O)N[C@@H](CC(=O)O)C(=O)N[C@H](C(=O)N1CCC[C@H]1C(=O)N[C@H](C(=O)N[C@@H](CCCCN)C(=O)N[C@@H](CC(C)C)C(=O)N[C@@H](CCCCNC(=O)COCCOCCNC(=O)COCCOCCNC(=O)CC[C@H](NC(=O)CCCCCCCCCCCCCCCCC(=O)O)C(=O)O)C(=O)N[C@@H](CCC(N)=O)C(=O)N[C@H](C(=O)N[C@@H](CC(C)C)C(=O)N[C@@H](CC(C)C)C(=O)N[C@@H](CCCCN)C(=O)N[C@@H](CCC(N)=O)C(=O)N[C@@H](CCC(=O)O)C(=O)N[C@@H](CCCNC(=N)N)C(=O)N[C@@H](CCC(N)=O)C(=O)N[C@@H](CCCCN)C(=O)N[C@@H](CCCCN)C(=O)N[C@@H](CCC(=O)O)C(=O)N[C@@H](CCCNC(=N)N)C(=O)N[C@@H](CCC(=O)O)C(=O)N[C@@H](CCC(N)=O)C(=O)N[C@@H](C)C(=O)N[C@@H](CCC(=O)O)C(=O)N[C@H](C(=O)N[C@@H](CC(N)=O)C(=O)N[C@@H](CCCCN)C(=O)N[C@@H](CCC(N)=O)C(=O)N[C@H](C(=O)N[C@@H](CC(C)C)C(=O)N[C@@H](C)C(=O)N[C@@H](CCC(N)=O)C(=O)N[C@H](C(N)=O)C(C)C)[C@@H](C)CC)[C@@H](C)O)[C@@H](C)CC)[C@@H](C)CC)C(C)C)C(C)C)", "note": "[SEQ ID NO: 96]", "EC50 [nM], 0% HSA": 0.38}, {"binder": "IVLSLDVPIKLK([AEEA-AEEA-γGlu-C18 diacid])QKLLKQERQKKQREQAETNKQILAQV-NH2 (N-terminus assumed; SMILES CC[C@H](C)[C@H](N)C(=O)N[C@H](C(=O)N[C@@H](CC(C)C)C(=O)N[C@@H](CO)C(=O)N[C@@H](CC(C)C)C(=O)N[C@@H](CC(=O)O)C(=O)N[C@H](C(=O)N1CCC[C@H]1C(=O)N[C@H](C(=O)N[C@@H](CCCCN)C(=O)N[C@@H](CC(C)C)C(=O)N[C@@H](CCCCNC(=O)COCCOCCNC(=O)COCCOCCNC(=O)CC[C@H](NC(=O)CCCCCCCCCCCCCCCCC(=O)O)C(=O)O)C(=O)N[C@@H](CCC(N)=O)C(=O)N[C@@H](CCCCN)C(=O)N[C@@H](CC(C)C)C(=O)N[C@@H](CC(C)C)C(=O)N[C@@H](CCCCN)C(=O)N[C@@H](CCC(N)=O)C(=O)N[C@@H](CCC(=O)O)C(=O)N[C@@H](CCCNC(=N)N)C(=O)N[C@@H](CCC(N)=O)C(=O)N[C@@H](CCCCN)C(=O)N[C@@H](CCCCN)C(=O)N[C@@H](CCC(N)=O)C(=O)N[C@@H](CCCNC(=N)N)C(=O)N[C@@H](CCC(=O)O)C(=O)N[C@@H](CCC(N)=O)C(=O)N[C@@H](C)C(=O)N[C@@H](CCC(=O)O)C(=O)N[C@H](C(=O)N[C@@H](CC(N)=O)C(=O)N[C@@H](CCCCN)C(=O)N[C@@H](CCC(N)=O)C(=O)N[C@H](C(=O)N[C@@H](CC(C)C)C(=O)N[C@@H](C)C(=O)N[C@@H](CCC(N)=O)C(=O)N[C@H](C(N)=O)C(C)C)[C@@H](C)CC)[C@@H](C)O)[C@@H](C)CC)C(C)C)C(C)C)", "note": "[SEQ ID NO: 97]", "EC50 [nM], 0% HSA": 1.66}, {"binder": "IVLSLD[dV]PTKLK([γGlu-Palmitoyl])QKLLKQERQRKEREQAEKNARILARV-NH2", "note": "[SEQ ID NO: 7]", "EC50 [nM], 0% HSA": 0.02, "EC50 [nM], 0.1% HSA": 0.03}]}]}
